Test results taken from US20260232732A1 (FUNDACI INSTITUT DE RECERCA CONTRA LA LEUC MIA JOSEP …, published 2026).
Where no end group is shown, it is not given here. The star is where a group is joined. Biotin = O=C1N[C@H]2[C@H](CS[C@H]2CCCCC(=O)*)N1

T1: biotin-peptide YVNFNFTDFY (human)
T1 peptide: Biotin-YVNFNFTDFY

T2: biotin-peptide TDFTSPIPNM (human)
T2 peptide: Biotin-TDFTSPIPNM

T3: biotin-peptide TSSMEDYVNF (human)
T3 peptide: Biotin-TSSMEDYVNF

T4: biotin-peptide MEDYVNFNFT (human)
T4 peptide: Biotin-MEDYVNFNFT

T5: biotin-peptide SMEDYVNFNF (human)
T5 peptide: Biotin-SMEDYVNFNF

T6: biotin-peptide SSMEDYVNFN (human)
T6 peptide: Biotin-SSMEDYVNFN

T7: biotin-peptide SESTSSMEDY (human)
T7 peptide: Biotin-SESTSSMEDY

T8: biotin-peptide TDFYCEKNNV (human)
T8 peptide: Biotin-TDFYCEKNNV

T9: biotin-peptide MTPTDFTSPI (human, also: prints MTPTDFTSP, without I10)
T9 peptide: Biotin-MTPTDFTSPI

T10: biotin-peptide FNFTDFYCEK (human)
T10 peptide: Biotin-FNFTDFYCEK

T11: biotin-peptide KNNVRQFAS (human)
T11 peptide: Biotin-KNNVRQFAS

T12: biotin-peptide DYGSESTSSM (human)
T12 peptide: Biotin-DYGSESTSSM

T13: biotin-peptide YCEKNNVRQF (human)
T13 peptide: Biotin-YCEKNNVRQF

T14: biotin-peptide TSPIPNMADD (human)
T14 peptide: Biotin-TSPIPNMADD

T15: biotin-peptide MADDYGSEST (human)
T15 peptide: Biotin-MADDYGSEST

T16: biotin-peptide IPNMADDYGS (human)
T16 peptide: Biotin-IPNMADDYGS

T17: naked peptide DYGSESTSSM (human)
T17 peptide: DYGSESTSSM

T18: naked peptide IPNMADDYGS (human)
T18 peptide: IPNMADDYGS

T19: naked peptide YCEKNNVRQF (human)
T19 peptide: YCEKNNVRQF

T20: naked peptide YVNFNFTDFY (human)
T20 peptide: YVNFNFTDFY

T21: naked peptide KNNVRQFAS (human)
T21 peptide: KNNVRQFAS

T22: naked peptide SESTSSMEDY (human)
T22 peptide: SESTSSMEDY

T23: naked peptide SMEDYVNFNF (human)
T23 peptide: SMEDYVNFNF

T24: naked peptide SSMEDYVNFN (human)
T24 peptide: SSMEDYVNFN

T25: naked peptide MEDYVNFNFT (human)
T25 peptide: MEDYVNFNFT

T26: naked peptide FNFTDFYCEK (human)
T26 peptide: FNFTDFYCEK

T27: naked peptide TDFTSPIPNM (human)
T27 peptide: TDFTSPIPNM

T28: naked peptide TSSMEDYVNF (human)
T28 peptide: TSSMEDYVNF


Tests used:
[1] = biological target: T1, biotin-peptide YVNFNFTDFY; assay: ELISA biotin-peptide; scFv 10 ug/mL; repI
Protocol: (§1) The peptides were synthesized naked or with a N-terminal Biotin modification with a purity of >98%. All four scFvs were verified by ELISA that can be detected with anti-His antibodies. ELISA was performed for scFv-peptide binding validation. Briefly, naked peptides were coated (50 μg/mL) in 0.58M carbonate-bicarbonate buffer pH9.5, 100 μL/well, 4° C. O/N. Then after blocking (3% BSA-PBS, 300 μL/well 37° C. 1.5 h) and washing (PBS+Tween-20 0.05% v/v (0.05% PBST), wells were incubated with each purified scFv antibody at concentration of 1 μg/mL in PBS at 37° C. 1 h. After washing (0.05% PBST), wells were incubated with secondary antibodies (goat anti-His IgG-HRP) in PBS, 37° C., 30 min. After washing, and incubation with TMB substrate, reactions were stopped with 2M HCl and reading was quantified at OD450.
(§2) Then a library of overlapping peptides were designed and constructed separately to produce 16 different peptides, covering full antigen sequence of total 48 aa. Peptide size was 10aa, with 7aa overlapping and ELISA screening of scFv against each peptide was performed in duplicate. Screening was performed using naked peptides in a standard plate or biotinylated peptides using avidin-plates. The list of overlapping peptides was as follows:
(§3) ELISA with biotin-conjugated peptides (5 μg/mL) was performed very similar to described above with minor modifications.

[2] = biological target: T2, biotin-peptide TDFTSPIPNM; assay: ELISA biotin-peptide; scFv 10 ug/mL; repI
Protocol: as §1, §2, §3

[3] = biological target: T3, biotin-peptide TSSMEDYVNF; assay: ELISA biotin-peptide; scFv 10 ug/mL; repI
Protocol: as §1, §2, §3

[4] = biological target: T4, biotin-peptide MEDYVNFNFT; assay: ELISA biotin-peptide; scFv 10 ug/mL; repI
Protocol: as §1, §2, §3

[5] = biological target: T5, biotin-peptide SMEDYVNFNF; assay: ELISA biotin-peptide; scFv 10 ug/mL; repI
Protocol: as §1, §2, §3

[6] = biological target: T6, biotin-peptide SSMEDYVNFN; assay: ELISA biotin-peptide; scFv 10 ug/mL; repI
Protocol: as §1, §2, §3

[7] = biological target: T7, biotin-peptide SESTSSMEDY; assay: ELISA biotin-peptide; scFv 10 ug/mL; repI
Protocol: as §1, §2, §3

[8] = biological target: T8, biotin-peptide TDFYCEKNNV; assay: ELISA biotin-peptide; scFv 10 ug/mL; repI
Protocol: as §1, §2, §3

[9] = biological target: T9, biotin-peptide MTPTDFTSPI; assay: ELISA biotin-peptide; scFv 10 ug/mL; repI
Protocol: as §1, §2, §3

[10] = biological target: T10, biotin-peptide FNFTDFYCEK; assay: ELISA biotin-peptide; scFv 10 ug/mL; repI
Protocol: as §1, §2, §3

[11] = biological target: T11, biotin-peptide KNNVRQFAS; assay: ELISA biotin-peptide; scFv 10 ug/mL; repI
Protocol: as §1, §2, §3

[12] = biological target: T12, biotin-peptide DYGSESTSSM; assay: ELISA biotin-peptide; scFv 10 ug/mL; repI
Protocol: as §1, §2, §3

[13] = biological target: T13, biotin-peptide YCEKNNVRQF; assay: ELISA biotin-peptide; scFv 10 ug/mL; repI
Protocol: as §1, §2, §3

[14] = biological target: T14, biotin-peptide TSPIPNMADD; assay: ELISA biotin-peptide; scFv 10 ug/mL; repI
Protocol: as §1, §2, §3

[15] = biological target: T15, biotin-peptide MADDYGSEST; assay: ELISA biotin-peptide; scFv 10 ug/mL; repI
Protocol: as §1, §2, §3

[16] = biological target: T16, biotin-peptide IPNMADDYGS; assay: ELISA biotin-peptide; scFv 10 ug/mL; repI
Protocol: as §1, §2, §3

[17] = biological target: T17, naked peptide DYGSESTSSM; assay: ELISA naked peptide; scFv 1 ug/mL; repI
Protocol: as §1
as §2, with “avidin-plates.” for “avidin-plates. The list of overlapping peptides was as follows:”

[18] = biological target: T18, naked peptide IPNMADDYGS; assay: ELISA naked peptide; scFv 1 ug/mL; repI
Protocol: as §1
as §2, with “avidin-plates.” for “avidin-plates. The list of overlapping peptides was as follows:”

[19] = biological target: T19, naked peptide YCEKNNVRQF; assay: ELISA naked peptide; scFv 1 ug/mL; repI
Protocol: as §1
as §2, with “avidin-plates.” for “avidin-plates. The list of overlapping peptides was as follows:”

[20] = biological target: T20, naked peptide YVNFNFTDFY; assay: ELISA naked peptide; scFv 1 ug/mL; repI
Protocol: as §1
as §2, with “avidin-plates.” for “avidin-plates. The list of overlapping peptides was as follows:”

[21] = biological target: T21, naked peptide KNNVRQFAS; assay: ELISA naked peptide; scFv 1 ug/mL; repI
Protocol: as §1
as §2, with “avidin-plates.” for “avidin-plates. The list of overlapping peptides was as follows:”

[22] = biological target: T22, naked peptide SESTSSMEDY; assay: ELISA naked peptide; scFv 1 ug/mL; repI
Protocol: as §1
as §2, with “avidin-plates.” for “avidin-plates. The list of overlapping peptides was as follows:”

[23] = biological target: T23, naked peptide SMEDYVNFNF; assay: ELISA naked peptide; scFv 1 ug/mL; repI
Protocol: as §1
as §2, with “avidin-plates.” for “avidin-plates. The list of overlapping peptides was as follows:”

[24] = biological target: T24, naked peptide SSMEDYVNFN; assay: ELISA naked peptide; scFv 1 ug/mL; repI
Protocol: as §1
as §2, with “avidin-plates.” for “avidin-plates. The list of overlapping peptides was as follows:”

[25] = biological target: T25, naked peptide MEDYVNFNFT; assay: ELISA naked peptide; scFv 1 ug/mL; repI
Protocol: as §1
as §2, with “avidin-plates.” for “avidin-plates. The list of overlapping peptides was as follows:”

[26] = biological target: T26, naked peptide FNFTDFYCEK; assay: ELISA naked peptide; scFv 1 ug/mL; repI
Protocol: as §1
as §2, with “avidin-plates.” for “avidin-plates. The list of overlapping peptides was as follows:”

[27] = biological target: T27, naked peptide TDFTSPIPNM; assay: ELISA naked peptide; scFv 1 ug/mL; repI
Protocol: as §1
as §2, with “avidin-plates.” for “avidin-plates. The list of overlapping peptides was as follows:”

[28] = biological target: T28, naked peptide TSSMEDYVNF; assay: ELISA naked peptide; scFv 1 ug/mL; repI
Protocol: as §1
as §2, with “avidin-plates.” for “avidin-plates. The list of overlapping peptides was as follows:”

Binder	OD450 [1] [OD]	OD450 [2] [OD]	OD450 [3] [OD]	OD450 [4] [OD]	OD450 [5] [OD]	OD450 [6] [OD]	OD450 [7] [OD]	OD450 [8] [OD]	OD450 [9] [OD]	OD450 [10] [OD]	OD450 [11] [OD]	OD450 [12] [OD]	OD450 [13] [OD]	OD450 [14] [OD]	OD450 [15] [OD]	OD450 [16] [OD]	OD450 [17] [OD]	OD450 [18] [OD]	OD450 [19] [OD]	OD450 [20] [OD]	also measured
Comparative antibody 2 (Comp-2) scFv, 243LO326 (VH SEQ ID NO: 51 and VL SEQ ID NO: 52 of WO 2022/195028 A2), His-tagged (scFv) scFv: QVQLVQSGAEVKKPGASVKVSCKASGYTFTSYWMHWVRQAPGQGLEWIGVIYPGNSDTRYNQKFKGRVTITRDTSASTAYMELSSLRSEDTAVYYCTRDYYSNYVYYYAMDYWGQGTTVTVSSGGGGSGGGGSGGGGSGGGGSDIVMTQTPLSLPVTPGEPASISCRSSQSLVHPNRNTYLHWYLQKPGQSPQLLIYKVSNRFSGVPDRFSGSGSGTDFTLKISRVEAEDVGVYYCSQSTHVPWTFGQGTKLEIKHHHHHH	1.93	0.1	0.08	0.1	0.09	0.12	0.06	0.06	0.08	1.45	0.08	0.09	0.09	0.04	0.08	0.1	0.02	0.02	0.05	0.02	OD450 [21]: 0.04 OD; OD450 [22]: 0.03 OD; OD450 [23]: 0.03 OD; OD450 [24]: 0.1 OD; OD450 [25]: 0.04 OD; OD450 [26]: 0.03 OD; OD450 [27]: 0.04 OD; OD450 [28]: 0.03 OD
CCR9_HUM2 scFv (humanized anti-CCR9 scFv, SEQ ID NO: 17 with C-terminal 6xHis tag) (scFv) scFv: QVQLVQSGAEVKKPGASVKVSCTASGYSFTDYIIYWVKQAHGQSLEWMGYIDPNNYNTRYSQKFQGKVTITVDKSSTSAYMELNSLTSDDTAVYYCARDVYWGQGTTVTVSSGGGGSGGGGSGGGGSGGGGSDVVMTQTPLSLSVTPGQPASISCRSSQSLVHSNGKTYLQWYLQKPGQSPKLLIYKVSNRFSGVPDRFSGSGSGTDFTLKISRVEAEDVGVYFCAQSTHVWTFGGGTKVEIKRAHHHHHH	0.17	0.12	2.05	2.56	2.48	2.45	0.08	0.08	0.09	0.05	0.07	0.09	0.07	0.09	0.09	0.14	0.02	0.02	0.04	0.03	OD450 [21]: 0.03 OD; OD450 [22]: 0.03 OD; OD450 [23]: 1.54 OD; OD450 [24]: 0.9 OD; OD450 [25]: 0.84 OD; OD450 [26]: 0.04 OD; OD450 [27]: 0.05 OD; OD450 [28]: 0.03 OD
